By Kd is commonly meant the equilibrium constant for the complex coming apart. A lower Kd goes with a tighter complex.

Test [1] concerns the target CEACAM1 on human CD8+ T cells from the blood of healthy donors (human) (UniProt P13688). Description: flow cytometry on human PBMCs, gated on CD8+ T cells, anti-mouse IgG-APC. On the technique in general: In flow cytometry, cells or beads pass a laser one at a time.
Test [2] concerns the target T1, CEACAM1 (human, UniProt P13688 35-526, limits assumed).
T1 construct: also called entire CEACAM1; CD66a
T1 sequence: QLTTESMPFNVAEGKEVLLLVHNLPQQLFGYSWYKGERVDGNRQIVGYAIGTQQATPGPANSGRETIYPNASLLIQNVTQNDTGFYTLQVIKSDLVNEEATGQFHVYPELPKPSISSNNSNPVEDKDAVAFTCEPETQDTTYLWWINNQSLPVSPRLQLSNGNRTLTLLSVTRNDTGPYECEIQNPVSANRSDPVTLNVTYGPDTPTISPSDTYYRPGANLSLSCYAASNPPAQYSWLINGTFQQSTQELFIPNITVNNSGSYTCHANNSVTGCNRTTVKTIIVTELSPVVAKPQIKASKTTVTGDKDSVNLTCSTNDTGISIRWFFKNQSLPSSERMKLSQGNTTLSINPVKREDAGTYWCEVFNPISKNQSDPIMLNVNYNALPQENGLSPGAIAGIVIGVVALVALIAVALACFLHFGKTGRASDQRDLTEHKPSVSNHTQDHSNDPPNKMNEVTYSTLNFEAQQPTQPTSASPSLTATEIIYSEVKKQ
The test can be described thus: method not stated.

The target in test [3] is T1, CEACAM1. Description: sandwich ELISA, CEACAM1 from CHO transfectants captured by anti-CEA, detection with anti-mouse Ig-HRP. As to the method:
Sandwich ELISA was coated with 0.25 μg/100 microL/well of anti-CEA (Dako). ELISA was washed and remaining binding sites blocked. Subsequently, CEACAM1 or CEACAM1deltaN (therefore CEACAM1 without N-domain, CEACAM1dN) was added thereto. CEACAM1 and CEACAM1deltaN were obtained from CHO transfectants. The ELISA was then incubated with differing antibodies. After 4 hours of incubation, the ELISA was washed and incubated with anti-mouse Ig-HRP. After 1 hour, the substrate TMB was added and the absorption measured at 450 nm.
For orientation: An ELISA detects its analyte on a solid surface through an enzyme-linked reagent.

The target of test [4] is CEACAM1 without N-domain (human) (UniProt P13688). The test can be described thus: sandwich ELISA, CEACAM1dN from CHO transfectants captured by anti-CEA, detection with anti-mouse Ig-HRP.

In turn, isotype control (antibody) showed a mean fluorescence intensity in test [1] of 436 MFI.

B1: anti-human CEACAM1 antibody (clone 18-20) (antibody, V domains shown)
VH: KPGETVKISCKASGYTFTVYGMNWVKQAPGKDLKWMGWINTYTGEPTYADDFKGRFAFSLETSASTAYLQINNLKNEDMATYFCARKAFYRYDGGMDYWGQGTSVTVSS
VL: SSLSASLGGKVTITCKASQDINKFLAWYQHKPGKGPRLLIHYTSTLQPGIPSRFSGSGSGRDYSFSISNLEPEDIATYYCLQYDNLYTFGGGTKLEIK
notes: Mouse monoclonal antibody from a hybridoma; also called antibody 18-20
Turning to B1, in the test with CEACAM1 [2], the Kd is 26 nM. Further, the “absorption at 450 nm (mean)” value in the test with CEACAM1 [3] is 1.3 absorption at 450 nm. In test [4], the absorption at 450 nm (mean) (absorption at 450 nm) was determined as 0.053.

B2: anti-human CEACAM1 antibody (clone B3-17) (antibody, V domains shown)
VH: GPELVKPGTSVKMSCKASGYTFTTYVMHWVQQKPGQGLDWIGFFNPYNDGTKYNEKFKGKATLTSDKSSSTAYMELSSLTSEDSAVYYCARWAYDGSYAYWGQGTTLTVSS
VL: SYLSVFLGGRVTITCKASDHINNWLAWYQQKPGNAPRLLISGATSLETGVPSRFSGSGSGKDYTLSIISLQTEDVATYYCQQYWRTPFTFGSGTKLEIK
notes: Mouse monoclonal antibody from a hybridoma; also called antibody B3-17; mAB, B3-17
In the test with CEACAM1 [2], B2 came in with a dissociation constant (Kd) of 10 nM. Also, the “absorption at 450 nm (mean)” value with CEACAM1 [3] came out at 0.62 absorption at 450 nm. The absorption at 450 nm (mean) (absorption at 450 nm) in test [4] came out at 0.91.

B3: anti-human CEACAM1 antibody (clone 6G5J) (antibody, V domains shown)
VH: KPGETVKISCKTSGYIFRNYGMKWVKQAPGKGLKWMGWINTYTGEPTYADDFKGRFAFSLETSASTAYLQINNLKNEDMATYFCARRGMITTSNYALDNWGQGTSVTVSS
VL: SSLSASLGDRVTISCRASQDISNYLNWYQQKPDGTIKLLIYYTSKLHSGVPSRFSGSGSGTDYSLTISNLDQEDIATYFCQQGNTLPWTFGGGTKLEIK
notes: Mouse monoclonal antibody from a hybridoma; also called antibody 6G5J
Turning to B3, the Kd with CEACAM1 [2] was found to be 23 nM. For the same molecule, the “absorption at 450 nm (mean)” value in the test with CEACAM1 [3] was found to be 1.09 absorption at 450 nm. This molecule also displayed an absorption at 450 nm (mean) (absorption at 450 nm) in test [4] of 0.066.

The record behind these values is patent US20170051058A1 (UNIVERSITAET DUISBURG ESSEN, published 2017).
